Here are results for 1 substance from patent US4748122A, “2,5-diketo-D-gluconic acid reductase” (Shionogi & Co., Ltd., priority 1983, dated 1988).

Where “and” joins values, the source holds several entries; their conditions need not be identical. Equal values may be shown once. Some results are limits rather than exact numbers.

The nature of data set [1]: pH stability of the enzyme (residual activities after treatment in buffers). The format is physicochemical. As for the experimental part:
(determined on the basis of residual activities after treatments in 0.1M dimethylglutaric acid buffer for pH 4-5, in 0.1M Good buffer (PIPES) for pH 6-7 and in 0.1M Tris-HCl buffer for ph 8-9 at 28° C. for 30 minutes). Residual activity of 70% or more is recognized in pH 5-7 while only those of 30% or less are recognized in pH 4 or below, and in pH 8 or above.
Ninety-six (96) % or more of the activity is lost after being stood at pH 4 or below, or pH 8 or above and at 28° C. for 2 hours.

Data set [2] in a line: Isoelectric point electrophoresis of the enzyme. It is filed as physicochemical. As for the experimental part: (10) Isoelectric point: pH 4.4±0.3 (measured by isoelectric point electrophoresis).
Five (5) μl of the enzyme solution was then subjected to isoelectric point electrophoresis (gel; polyacrylamide: conditions of phoresis(a); pH interval 2.5-5; anode electrolyte=0.1M H2 SO4 cathode electrolyte=0.1M NaOH, 6W, 2,700 VH: conditions of phoresis(b); pH interval 4.0-6.5; anode electrolyte=0.04M DL-glutamic acid, cathode electrolyte=0.2M NaOH, 25W, 2,600 VH; temperature, 18°-20° C.) to give a result that the enzyme migrated in a single band at a position which corresponds to pH 4.4±0.2. From the previously-describedfacts, it was confirmed that the purified enzyme solution was one which solely contains 25DKG-Rase.

Data set [3] in a line: Optimum pH and range of reaction temperature of the enzyme. It is filed as biochemical. As for the experimental part: In order to clarify the relation between the reaction velocity of the 25DKG-Rase and pH, the enzymatic activities were measured by using the following buffers in place of the buffer of the reaction system in (5)-(ii).
The results of the measurements of the enzymatic activities on the substrates, Ca-25DKG and 5KF at the respective pHs are shown in Table 4 below.
The reaction velocities in the reaction system of (5)-(ii) which employs the substrate, Ca-25DKG were measured at varying temperatures from 15° to 50° C.
Enzymatic activities of 25DKG-Rases obtained from K-106 and T-13 were measured at varying pH from 4 to 9 (substrate: Ca-25DKG, reaction temperature: 30° C.).

“2,5-diketo-D-gluconic acid reductase [25DKG-Rase]”: the pH stability in data set [1] (28° C. for 30 minutes in 0.1M buffers) is 5-7 pH. For the same substance, the Residual activity in data set [1] (pH 4 or below, and pH 8 or above, 28° C. for 30 minutes) was ≤ 30%; in data set [1] (pH 5-7, 28° C. for 30 minutes) it was ≥ 70%. In addition, the activity lost in data set [1] (pH 4 or below, or pH 8 or above, 28° C. for 2 hours) is listed as ≥ 96%. Also, the isoelectric point in data set [2] was 4.4±0.2 pH and 4.4±0.3 pH. Also, the “optimum pH” value in data set [3] is 6-7 pH.
